Reference: patent publication US8124424B2, “Single molecule-format bioluminescent probe” (National Institute of Advanced Industrial Science and …, priority 2007, dated 2012)

Assays:
[1] = system: AR LBD; test: Comparison of the DHT-induced luminescence of probes pAR-CN, pAR-NC, pAR-mut in HeLa cells; format: cell-based, human; conditions: 10^−5 M DHT stimulation, FIG. 3
Protocol: Cervical carcinoma-derived HeLa cells were sub-cultured in 12-well plates in Dulbecco's modified eagle's medium (DMEM; Sigma) supplemented with 10% steroid-free fetal bovine serum (FBS) and 1% penicillin-streptmycin (P/S) at 37° C. in a 5% CO2 incubator. HeLa cells in 12-well plates were transfected with pAR-NC, pAR-CN, or pAR-mut using a transfection reagent, TransIT-LT1 (Minis), which guarantees about 8% transfection efficiency to HeLa cells when incubated for 24 h. The cells were incubated for 12 h and then used for the following experiments.
HeLa cells in 12-well plates were transfected with the plasmids and incubated for 16 h. […] The recovered enzyme activities by ligands were estimated with a luminescence substrate kit, Bright Glo (Promega) or Dual-luciferase assay kit (Promega), according to the manufacturer's manuals. […] After a 3 min incubation at 37° C., the luminescence intensities from the cell lysates were recorded with a luminometer (Minilumat LB9506; Berthold). The protein amounts in the cell lysates were subsequently determined using a Bradford reagent for a normalization of the luminescence intensities. In specific, the firefly luminescence, which was normalized against the determined protein amount, was expressed as “RLU/protein (Bright Glo)”. The unit means the firefly luminescence intensity from the 1 μg of cell lysate.

[2] = target: T1, AR LBD (Homo sapiens, UniProt P10275); test: Ligand selection of pSimbe-LXA probe in four cell lines (MCF-7, CHO, HeLa, NIH 3T3); format: cell-based; parameters: The cDNA-encoding AR LBD (672-910 AA) was modified by PCR; expressed in transfected cells; host or cells: HeLa; conditions: 10^−5 M E2, T, DHT, 20 minutes, FIG. 16
T1 sequence (P10275 672-910): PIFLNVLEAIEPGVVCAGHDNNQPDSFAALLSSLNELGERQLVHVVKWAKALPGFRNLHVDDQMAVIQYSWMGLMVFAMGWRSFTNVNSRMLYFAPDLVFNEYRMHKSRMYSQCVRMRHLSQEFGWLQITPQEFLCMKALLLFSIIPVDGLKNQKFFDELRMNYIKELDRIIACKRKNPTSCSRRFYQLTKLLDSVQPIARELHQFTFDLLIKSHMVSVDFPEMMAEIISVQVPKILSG

[3] = target: T1, AR LBD; test: Androgenic activity of ligands with pSimbe (CBLuc) probes in MCF-7 cells (dose-response, time-course, repetitive measurement, ligand panel); format: cell-based; conditions: two stimulations with 10^−5 M DHT for 20 minutes with medium replacement, FIG. 21
Protocol: As controls, vehicle #1 (0.1% DMSO) and vehicle #2 (0.02M phosphoric buffer saline (PBS)) were tested.

[4] = target: T1, AR LBD; test: Inhibitory effects of androgen antagonists on DHT-induced luminescence, HeLa cells carrying pAR-NC and pTK-RLuc; format: cell-based; parameters: The cDNA-encoding AR LBD (672-910 AA) was modified by PCR; expressed in transfected cells; host or cells: HeLa; conditions: 5×10^−4 M antagonist 20 min, then 10^−5 M DHT 20 min, FIG. 8
Protocol: HeLa cells were transfected with pAR-NC and pTK-RLuc, and extensively incubated for 16 h. […] The luminescence intensities of each well were determined with a Dual-luciferase assay kit (Promega).

[5] = target: T2, androgen receptor ligand binding domain (AR LBD; 672-910 AA) (human, UniProt P10275 672-910); test: cell-based or functional assay
T2 sequence (looked up): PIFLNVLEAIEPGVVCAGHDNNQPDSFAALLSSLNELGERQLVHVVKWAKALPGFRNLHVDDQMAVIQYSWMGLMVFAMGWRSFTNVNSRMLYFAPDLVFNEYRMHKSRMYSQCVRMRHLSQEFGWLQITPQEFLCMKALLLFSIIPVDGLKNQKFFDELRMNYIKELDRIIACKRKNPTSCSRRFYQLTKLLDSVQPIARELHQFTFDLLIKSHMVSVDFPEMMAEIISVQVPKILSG

pAR-mut: plasmid/probe with an alanine mutant (AQNLF) of the FQNLF motif (RGAAQNLFQSV)
luminescence intensities of probe-carrying cells compared among the three probes [1]: four times weaker luminescence intensities than the cells carrying pAR-NC

pSimbe-LXA: CBLuc probe with AR LBD and reverse sequence of LXXLL motif from Xenopus TIF2 (SSDQLLRHLIKHK)
luminescence intensity versus the background in cell lines [2]: marked increase in the luminescence intensity versus the background
reversibility of luminescence on repeated DHT stimulation [3]: reversible recovery in the luminescence intensities

CC12CC1(C)C(=O)N(c1cc(Cl)cc(Cl)c1)C2=O (centres unmarked) [procymidone]
percentage inhibition of the DHT-induced luminescence [4]: 68%

B1: AR N-terminal motif peptide (11 AA; 20RGAFQNLFQSV30), 'FQNLF' motif of human AR NTD (peptide)
peptide: RGAFQNLFQSV
t1/2 of the rise in luminescence after 10^-6 M DHT, HeLa cells carrying pAR-NC [5]: 4.5 min
